Reference: paper PMC2777437

What was measured:
RHD-CBFb complex [1] = biological target: T1, RHD-CBFb complex (UniProt Q01196;Q13951 50-178;1-141); assay: fluorescence anisotropy
RHD-CBFb complex [2] = biological target: T1, RHD-CBFb complex; assay: fluorescence anisotropy; remark: listed apart in the source

T1 sequence (Q01196 50-178, chain 1 of 2): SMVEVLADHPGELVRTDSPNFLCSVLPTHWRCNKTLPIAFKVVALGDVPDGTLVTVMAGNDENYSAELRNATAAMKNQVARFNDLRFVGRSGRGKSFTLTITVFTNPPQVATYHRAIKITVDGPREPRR
T1 sequence (Q13951 1-141, chain 2 of 2): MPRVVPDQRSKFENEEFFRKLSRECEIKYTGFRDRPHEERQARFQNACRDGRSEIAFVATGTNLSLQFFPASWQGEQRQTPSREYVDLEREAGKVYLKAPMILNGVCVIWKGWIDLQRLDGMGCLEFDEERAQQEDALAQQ

| Binder | Kd (RHD-CBFb complex [1]) | binding result (RHD-CBFb complex [2]) |
| --- | --- | --- |
| AUUACCGGCGAGUUUUGAACCGCGUAAU (structured_RNA, none) [Apt28A] | 0.108 ± 0.034 µM | – |
| GGUCCAGGCGCGUUAGCAAAACCGCGGAUC (structured_RNA, none) [Apt45A] | 0.162 ± 0.102 µM | – |
| ATTACCGGCGAGTTTTGAACCGCGTAAT (ssDNA) [DNA Apt28A] | – | no binding |
